One test concerns the target T1, Rat SLIT1-N (rat, UniProt O88279 34-1124, limits assumed).
T1 construct: domain: SLIT1-N; d2-labelled in the HTRF assay
T1 sequence (looked up): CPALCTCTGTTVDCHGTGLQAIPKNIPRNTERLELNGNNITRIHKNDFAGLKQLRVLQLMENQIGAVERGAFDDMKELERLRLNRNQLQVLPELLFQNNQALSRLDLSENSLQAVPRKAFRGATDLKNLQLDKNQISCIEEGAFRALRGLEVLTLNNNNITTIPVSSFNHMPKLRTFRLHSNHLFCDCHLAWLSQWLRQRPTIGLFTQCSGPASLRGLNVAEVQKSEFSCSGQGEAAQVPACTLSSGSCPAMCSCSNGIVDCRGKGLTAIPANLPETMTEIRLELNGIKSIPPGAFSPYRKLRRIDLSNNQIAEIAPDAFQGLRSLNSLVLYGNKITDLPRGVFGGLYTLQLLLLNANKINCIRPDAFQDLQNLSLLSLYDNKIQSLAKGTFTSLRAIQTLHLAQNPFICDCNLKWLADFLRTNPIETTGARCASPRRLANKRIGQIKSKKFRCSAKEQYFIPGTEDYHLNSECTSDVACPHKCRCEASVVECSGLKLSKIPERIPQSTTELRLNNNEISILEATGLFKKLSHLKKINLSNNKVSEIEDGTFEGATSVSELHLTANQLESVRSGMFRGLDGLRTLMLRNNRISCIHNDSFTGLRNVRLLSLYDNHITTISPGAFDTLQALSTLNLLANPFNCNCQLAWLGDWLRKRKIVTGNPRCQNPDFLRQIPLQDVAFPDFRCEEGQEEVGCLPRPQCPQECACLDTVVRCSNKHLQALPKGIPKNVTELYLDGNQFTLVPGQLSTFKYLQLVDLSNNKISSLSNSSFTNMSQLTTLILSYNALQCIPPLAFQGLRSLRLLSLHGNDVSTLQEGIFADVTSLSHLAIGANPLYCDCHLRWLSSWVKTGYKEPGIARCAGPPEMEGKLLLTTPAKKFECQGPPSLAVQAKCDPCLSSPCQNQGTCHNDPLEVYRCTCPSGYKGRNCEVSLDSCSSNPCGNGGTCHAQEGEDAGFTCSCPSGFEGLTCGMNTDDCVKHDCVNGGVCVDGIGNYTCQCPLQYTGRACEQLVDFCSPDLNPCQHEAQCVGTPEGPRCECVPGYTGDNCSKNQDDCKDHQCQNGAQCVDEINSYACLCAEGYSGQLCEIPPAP
The experiment in a line: HTRF competition: d2-labelled rat SLIT1-N binding to human ROBO2 on HEK293 cells; geometric mean, n=3. The method, then:
(§1) After incubation, fluorescence at 665 nm and 620 nm was measured on an Envision multilabel plate reader. The HTRF Ratio was calculated as follows: fluorescence at 665 nm/fluorescence at 620 nm×10,000. […] The IC₅₀ for each SLITx-N was determined using an 11-point, 4-fold dilution series with a top concentration of 4000 nM.

Another test has as its target T2, Rabbit SLIT2-N (rabbit, UniProt G1TMD3 31-1121).
T2 construct: domain: SLIT2-N; d2-labelled in the HTRF assay
T2 sequence: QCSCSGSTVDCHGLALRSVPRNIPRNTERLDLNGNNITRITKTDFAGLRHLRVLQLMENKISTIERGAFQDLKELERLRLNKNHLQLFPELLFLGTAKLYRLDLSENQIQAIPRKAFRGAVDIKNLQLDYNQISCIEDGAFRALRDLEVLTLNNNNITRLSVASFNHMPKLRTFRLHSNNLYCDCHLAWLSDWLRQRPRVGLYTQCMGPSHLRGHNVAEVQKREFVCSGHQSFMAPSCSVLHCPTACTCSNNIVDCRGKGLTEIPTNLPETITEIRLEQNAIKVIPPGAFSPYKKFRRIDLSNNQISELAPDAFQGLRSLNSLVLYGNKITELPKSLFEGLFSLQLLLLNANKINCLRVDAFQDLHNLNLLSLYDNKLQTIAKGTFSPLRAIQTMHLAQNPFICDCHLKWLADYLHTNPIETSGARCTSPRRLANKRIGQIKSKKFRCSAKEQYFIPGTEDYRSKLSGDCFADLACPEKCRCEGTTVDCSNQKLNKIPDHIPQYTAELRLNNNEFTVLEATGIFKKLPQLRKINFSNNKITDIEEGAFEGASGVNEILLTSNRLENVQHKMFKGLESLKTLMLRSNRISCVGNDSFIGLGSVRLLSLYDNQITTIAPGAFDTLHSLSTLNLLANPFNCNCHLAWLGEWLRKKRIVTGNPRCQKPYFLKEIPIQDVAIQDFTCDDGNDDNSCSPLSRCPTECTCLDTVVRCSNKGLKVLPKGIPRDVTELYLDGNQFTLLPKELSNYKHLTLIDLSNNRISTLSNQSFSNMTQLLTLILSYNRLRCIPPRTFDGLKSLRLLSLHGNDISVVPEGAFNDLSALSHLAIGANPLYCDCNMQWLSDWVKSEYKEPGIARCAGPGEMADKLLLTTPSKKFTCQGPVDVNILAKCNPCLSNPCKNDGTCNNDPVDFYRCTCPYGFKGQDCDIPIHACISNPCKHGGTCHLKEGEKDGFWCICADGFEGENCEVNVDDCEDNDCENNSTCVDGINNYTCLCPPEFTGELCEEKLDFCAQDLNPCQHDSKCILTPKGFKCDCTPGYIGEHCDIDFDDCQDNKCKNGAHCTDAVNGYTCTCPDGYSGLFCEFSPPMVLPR
The experiment in a line: HTRF competition: d2-labelled rabbit SLIT2-N binding to human ROBO2 on HEK293 cells; geometric mean, n=3. The method, then: as §1
A general note: In TR-FRET formats the signal depends on donor and acceptor labels being close together.

One may read the IC50 as the concentration at which inhibition is half-maximal.

B1: ROBO2-Fc 2.2 (Fc fusion)
chain: SRLRQEDFPPRIVEHPSDVIVSKGEPTTLNCKAEGRPTPTIEWYKDGERVETDKDDPRSHRMLLPSGSLFFLRIVHGRRSKPDEGSYVCVARNYLGEAVSRNASLEVALLRDDFRQNPTDVVVAAGEPAILECQPPRGHPEPTIYWKKDKVRIDDKEERISIRGGKLMISNTRKSDAGMYTCVGTNMVGERDSDPAELTVFERGGSGGSEPKSSDKTHTCPPCPAPEAAGAPSVFLFPPKPKDTLMISRTPEVTCVVVDVSHEDPEVKFNWYVDGVEVHNAKTKPREEQYNSTYRVVSVLTVLHQDWLNGKEYKCKVSNKALPAPIEKTISKAKGQPREPQVYTLPPSREEMTKNQVSLTCLVKGFYPSDIAVEWESNGQPENNYKTTPPVLDSDGSFFLYSKLTVDKSRWQQGNVFSCSVMHEALHNHYTQKSLSLSPG
notes: Labelled with Alexa Fluor 647 in the flow cytometry assay; also called ROBO-Fc 2.2; ROBO2-Fc 2.2-AF647
Consider B1, for which the results for the IC50 with Rat SLIT1-N and in the test with Rabbit SLIT2-N were 8.3 nM and 5.7 nM, respectively.

Values taken from patent US20210214414A1 (Pfizer, published 2021).
